Patent US20250026849A1 (ARCELLX, published 2025)

T1: CD123 (Homo sapiens (Human), UniProt P26951 19-305, limits assumed)
T1 construct: The CD123 construct used in the ELISA is not described; also called CD123-Signal
T1 sequence: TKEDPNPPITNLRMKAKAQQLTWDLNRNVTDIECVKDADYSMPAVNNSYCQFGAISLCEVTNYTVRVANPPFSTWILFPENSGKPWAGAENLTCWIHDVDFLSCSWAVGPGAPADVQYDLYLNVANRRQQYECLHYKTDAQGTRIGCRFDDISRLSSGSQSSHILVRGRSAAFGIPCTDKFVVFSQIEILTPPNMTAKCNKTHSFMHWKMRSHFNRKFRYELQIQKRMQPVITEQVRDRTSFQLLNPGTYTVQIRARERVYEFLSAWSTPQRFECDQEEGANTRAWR


Molecular target: T1, CD123
Test: ELISA
Parameters: unit not given here

| Binder | ELISA_avg |
| --- | --- |
| D domain of SEQ ID NO: 569 (designed binder) MGSWWEFQFRLYAIDQRLLALGGSEAELAEFEQDIADFEWMLQDYKGKGNPEVEALMLEADAIEAELKAYRHN | 3.1 |
| D domain of SEQ ID NO: 559 (designed binder) MGSWAEFKHDLADIKRELEALGGSEAELAWFELSIAFFEDELQHYKGKGNPEVEALRKEAAAIRDELQAYRHN | 3.3 |
| D domain of SEQ ID NO: 562 (designed binder) MGSWHWFKEDLAMITDVLEALGGSEAELAAFESEIAVFEADLQYYKGKGNPEVEALRKEAAAIRDELQAYRHN | 5.2 |
| D domain of SEQ ID NO: 561 (designed binder) MGSWFQFKEFLAMITHNLEALGGSEAELAEFEHDIALFESELQQYKGKGNPEVEALRKEAAAIRDELQAYRHN | 3.1 |
| D domain of SEQ ID NO: 563 (designed binder) MGSWSWFQWDLAGIKDHLEALGGSEAELAEFESEIAYFEDELQWYKGKGNPEVEALRKEAAAIRDELQAYRHN | 12.9 |
| D domain of SEQ ID NO: 553 (designed binder) MGSWHWFKEELAEIKEDLVALGGSEAELAWFEYDIAMFELSLQNYKGKGNPEVEALRKEAAAIRDELQAYRHN | 3.1 |
| D domain of SEQ ID NO: 554 (designed binder) MGSWNDFKEELAWIKFDLEALGGSEAELAWFEEDIAMFEQQLQAYKGKGNPEVEALRKEAAAIRDELQAYRHN | 3.8 |
| D domain of SEQ ID NO: 557 (designed binder) MGSWDFFKYDLANINEWLEALGGSEAELADFEYGIADFELWLQDYKGKGNPEVEALRKEAAAIRDELQAYRHN | 5.5 |
| D domain of SEQ ID NO: 568 (designed binder) MGSWWEFDHRLTAIDTRLQALGGSEAELAEFESSIAEFEWWLQDYKGKGNPEVEALFAEAEAIYVELDAYRHN | 4.3 |
| D domain of SEQ ID NO: 558 (designed binder) MGSWYQFKDDLAHIKHLLEALGGSEAELAVFEYIIADFESFLQIYKGKGNPEVEALRKEAAAIRDELQAYRHN | 4 |
| D domain of SEQ ID NO: 567 (designed binder) MGSWAEFKQRLAAIKTRLEALGGSEAELAAFEWEIVAFFSELFAYKGKGNPEVEALRDEAIAIETELVAYRHN | 3.6 |
| D domain of SEQ ID NO: 566 (designed binder) MGSWAEFKQRLAAIKTRLEALGGSEAELAAFMDEIMAFEWELWAYKGKGNPEVEALMNEAFAIDVELYAYRHN | 3.4 |
| D domain of SEQ ID NO: 556 (designed binder) MGSWDEFKEDLAHIKTDLEALGGSEAELALFEDEIADFEMYLQHYKGKGNPEVEALRKEAAAIRDELQAYRHN | 6.3 |
| D domain of SEQ ID NO: 555 (designed binder) MGSWWDFKDWLAEIKHDLEALGGSEAELALFESEIADFEFGLQWYKGKGNPEVEALRKEAAAIRDELQAYRHN | 4.2 |
| D domain of SEQ ID NO: 564 (designed binder) MGSWTEFKGELAEIKWILEALGGSEAELAFFEDEIAAFEWDLQKYKGKGNPEVEALRKEAAAIRDELQAYRHN | 8.2 |
| D domain of SEQ ID NO: 570 (designed binder) MGSWYEFDHRLDAIYQRLWALGGSEAELAEFEYGIAEFEEYLQDYKGKGNPEVEALISEAWAIEWELSAYRHN | 4.6 |
| D domain of SEQ ID NO: 565 (designed binder) MGSWFEFKWTLALIKQELEALGGSEAELADFEQEIAEFEWWLQTYKGKGNPEVEALRKEAAAIRDELQAYRHN | 4.9 |
| D domain of SEQ ID NO: 560 (designed binder) MGSWVVFKQDLADINHQLEALGGSEAELAWFEWEIADFEWELQHYKGKGNPEVEALRKEAAAIRDELQAYRHN | 3.6 |

Now from value to binder:

| ELISA_avg | Binder |
| --- | --- |
| 3.4 | D domain of SEQ ID NO: 582 (designed binder) MGSWSEFDQRLEAIWNRLDALGGSEAELADFEREIAYFENQLQWYKGKGNPEVEALNNEAFAIVDELGAYRHN |
| 3.9 | D domain of SEQ ID NO: 592 (designed binder) MGSWTEFTQRLEAIVDRLFALGGSEAELAEFENSIADFEWDLQWYKGKGNPEVEALNREAVAIDNELWAYRHN |
| 4.5 | D domain of SEQ ID NO: 578 (designed binder) MGSWYEFDHRLEAIYDRLWALGGSEAELAFFEFDIADFEWDLQSYKGKGNPEVEALFDEAAAIGHELLAYRHN |
| 3.6 | D domain of SEQ ID NO: 575 (designed binder) MGSWEEFDQRLDAIDVRLYALGGSEAELAEFEFDIAAFEEWLQLYKGKGNPEVEALNMEAFAITDELCAYRHN |
| 4.4 | D domain of SEQ ID NO: 585 (designed binder) MGSWYEFESRLEAIWWRLEALGGSEAELAQFEQYIADFEQHLQWYKGKGNPEVEALDWEADAIWLELQAYRHN |
| 5.4 | D domain of SEQ ID NO: 587 (designed binder) MGSWDEFYYRLVAITHRLHALGGSEAELAWFEDDIAGFEWDLQTYKGKGNPEVEALYKEAGAIGMELTAYRHN |
| 4.5 | D domain of SEQ ID NO: 577 (designed binder) MGSWEEFDKRLDAITRRLMALGGSEAELAEFESTIAWFEWDLQEYKGKGNPEVEALDWEAYAIDYELGAYRHN |
| 6.4 | D domain of SEQ ID NO: 593 (designed binder) MGSWVEFIMRLDAIYERLDALGGSEAELAEFEWHIADFEDHLQWYKGKGNPEVEALFEEADAIWEELWAYRHN |
| 6.7 | D domain of SEQ ID NO: 588 (designed binder) MGSWEEFDTRLLAIFGRLGALGGSEAELALFEMLIAKFEDDLQNYKGKGNPEVEALSEEAFAIDHELGAYRHN |
| 3.2 | D domain of SEQ ID NO: 594 (designed binder) MGSWNEFLLRLDAIEHRLFALGGSEAELAEFEWEIADFEDDLQWYKGKGNPEVEALVEEAEAIDVELVAYRHN |
| 3.1 | D domain of SEQ ID NO: 584 (designed binder) MGSWMEFDYRLEAIWMRLIALGGSEAELADFESSIADFEHHLQSYKGKGNPEVEALEWEAFAIGVELDAYRHN |
| 4.3 | D domain of SEQ ID NO: 572 (designed binder) MGSWSEFDSRLDAIAYRLFALGGSEAELAQFEWIIADFEEDLQMYKGKGNPEVEALFSEAYAIEIELNAYRHN |
| 4.6 | D domain of SEQ ID NO: 573 (designed binder) MGSWYEFDDRLDAIAYRLNALGGSEAELAWFEWEIAEFELDLQWYKGKGNPEVEALVWEADAIEWELEAYRHN |
| 3.8 | D domain of SEQ ID NO: 595 (designed binder) MGSWYEFNMRLGAIDDRLQALGGSEAELAWFEDMIAIFEDDLQIYKGKGNPEVEALEQEAAAIHQELWAYRHN |
| 4.4 | D domain of SEQ ID NO: 586 (designed binder) MGSWEEFYMRLVAIHMRLRALGGSEAELAVFENYIAEFEEYLQYYKGKGNPEVEALTIEADAIGTELGAYRHN |
| 3.6 | D domain of SEQ ID NO: 583 (designed binder) MGSWYEFDERLWAIWERLDALGGSEAELAHFEWVIADFENDLQWYKGKGNPEVEALEFEAEAIVTELHAYRHN |
| 5.2 | D domain of SEQ ID NO: 591 (designed binder) MGSWNEFYERLEAIDRRLFALGGSEAELALFEWMIADFEDDLQMYKGKGNPEVEALINEAGAIGFELEAYRHN |
| 6.4 | D domain of SEQ ID NO: 581 (designed binder) MGSWTEFDDRLFAIYWRLDALGGSEAELAWFEEVIAEFENDLQVYKGKGNPEVEALDDEAHAISIELEAYRHN |
| 4.7 | D domain of SEQ ID NO: 576 (designed binder) MGSWEEFDVRLDAIFNRLWALGGSEAELAEFEFDIAWFEMDLQEYKGKGNPEVEALFDEAEAITNELVAYRHN |
| 13.7 | D domain of SEQ ID NO: 571 (designed binder) MGSWYEFDMRLDAIWERLTALGGSEAELADFEQYIAEFERQLQDYKGKGNPEVEALFDEAWAIEDELYAYRHN |
| 3.8 | D domain of SEQ ID NO: 574 (designed binder) MGSWFEFDERLDAIGSRLTALGGSEAELASFEFYIADFEEWLQQYKGKGNPEVEALEWEAFAIDEELGAYRHN |
| 4.1 | D domain of SEQ ID NO: 579 (designed binder) MGSWNEFDDRLLAIWGRLDALGGSEAELAFFEEQIAGFEDELQWYKGKGNPEVEALDQEAEAIEKELWAYRHN |
| 3.4 | D domain of SEQ ID NO: 589 (designed binder) MGSWREFDQRLWAIDWRLEALGGSEAELAMFEWMIATFEDDLQWYKGKGNPEVEALYREAFAIDWELDAYRHN |
| 4.3 | D domain of SEQ ID NO: 590 (designed binder) MGSWEEFHERLDAIDERLEALGGSEAELAFFEDDIASFEDWLQWYKGKGNPEVEALSREADAINFELEAYRHN |
| 5 | D domain of SEQ ID NO: 580 (designed binder) MGSWVEFDDRLDAIWERLDALGGSEAELAWFEEQIAVFEHQLQDYKGKGNPEVEALNQEAEAIDLELKAYRHN |
